From PMC6907089

Assays:
Test in all cases: BioID proximity labeling, quantitative mass spectrometry
Settings in all cases: inducible HEK293 cells; read off a plot
AL1A2 = target: AL1A2
AP2B1 = target: AP2B1
CCD43 = target: CCD43
CDKAL = target: CDKAL
CHM4B = target: CHM4B
CKSP2 = target: CKSP2
COPA = target: COPA
COPB2 = target: COPB2
COPB = target: COPB
COPD = target: COPD
COPE = target: COPE
CPIN1 = target: CPIN1
DBLOH = target: DBLOH
DBNL = target: DBNL
DHYS = target: DHYS
EFHD2 = target: EFHD2
EIF3D = target: EIF3D
ELP4 = target: ELP4
EMC2 = target: EMC2
GRWD1 = target: GRWD1
ICAL = target: ICAL
N4BP1 = target: N4BP1
NHLC2 = target: NHLC2
NSF = target: NSF
NSMA3 = target: NSMA3
PAPOA = target: PAPOA
RFA2 = target: RFA2
RFA3 = target: RFA3
S23IP = target: S23IP
SAHH2 = target: SAHH2
SEPT9 = target: SEPT9
SNP29 = target: SNP29
SYAP1 = target: SYAP1
TBD2B = target: TBD2B
TES = target: TES
TXND9 = target: TXND9
VRK2 = target: VRK2
WDR44 = target: WDR44
XIAP = target: XIAP
ZYX = target: ZYX
syntaxin 5 (STX5) = syntaxin 5 (STX5) (UniProt Q13190)
Chain of UniProt Q13190 (Q13190 whole entry): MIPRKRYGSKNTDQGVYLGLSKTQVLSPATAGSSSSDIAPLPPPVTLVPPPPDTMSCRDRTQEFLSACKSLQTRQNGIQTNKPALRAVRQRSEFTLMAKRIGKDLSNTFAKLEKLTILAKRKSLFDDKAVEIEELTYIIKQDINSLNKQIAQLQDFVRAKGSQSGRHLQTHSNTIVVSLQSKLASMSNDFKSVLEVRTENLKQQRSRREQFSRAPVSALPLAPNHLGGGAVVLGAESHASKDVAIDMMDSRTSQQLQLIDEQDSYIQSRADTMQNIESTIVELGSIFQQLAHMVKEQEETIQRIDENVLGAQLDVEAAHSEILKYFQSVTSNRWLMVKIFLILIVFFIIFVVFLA

SH3G1 = target: SH3G1
TBPL1 = target: TBPL1

STING H232 (wild-type; wt) (from UniProt Q86WV6) G207E
ratio to parent (AL1A2): 0.39
ratio to parent (AP2B1): 0.35
ratio to parent (CCD43): 0.46
ratio to parent (CDKAL): 0.4
ratio to parent (CHM4B): 0.41
ratio to parent (CKSP2): 0
ratio to parent (COPA): 0.31
ratio to parent (COPB2): 0.36
ratio to parent (COPB): 0.35
ratio to parent (COPD): 0.28
ratio to parent (COPE): 0.22
ratio to parent (CPIN1): 0.46
ratio to parent (DBLOH): 0.48
ratio to parent (DBNL): 0.47
ratio to parent (DHYS): 0
ratio to parent (EFHD2): 0.38
ratio to parent (EIF3D): 0.23
ratio to parent (ELP4): 0.38
ratio to parent (EMC2): 0.48
ratio to parent (GRWD1): 0.46
ratio to parent (ICAL): 0
ratio to parent (N4BP1): 0.27
ratio to parent (NHLC2): 0
ratio to parent (NSF): 0.37
ratio to parent (NSMA3): 0.21
ratio to parent (PAPOA): 0.4
ratio to parent (RFA2): 0.32
ratio to parent (RFA3): 0.34
ratio to parent (S23IP): 0.39
ratio to parent (SAHH2): 0.36
ratio to parent (SEPT9): 0.3
ratio to parent (SNP29): 0.26
ratio to parent (SYAP1): 0.41
ratio to parent (TBD2B): 0.39
ratio to parent (TES): 0.47
ratio to parent (TXND9): 0.36
ratio to parent (VRK2): 0.46
ratio to parent (WDR44): 0.32
ratio to parent (XIAP): 0.21
ratio to parent (ZYX): 0.29
ratio to parent (syntaxin 5 (STX5)): 0.47

STING R232 (from UniProt Q86WV6) G207E
ratio to parent (AL1A2): 0.05
ratio to parent (AP2B1): 0.72
ratio to parent (CCD43): 0.38
ratio to parent (CDKAL): 0.2
ratio to parent (CHM4B): 0.14
ratio to parent (CKSP2): 0.41
ratio to parent (COPA): 0.04
ratio to parent (COPB2): 0.06
ratio to parent (COPB): 0.1
ratio to parent (COPD): 0.1
ratio to parent (COPE): 0.28
ratio to parent (CPIN1): 0.17
ratio to parent (DBLOH): 0.26
ratio to parent (DBNL): 0.24
ratio to parent (DHYS): 0
ratio to parent (EFHD2): 0.44
ratio to parent (EIF3D): 0.31
ratio to parent (ELP4): 0.75
ratio to parent (EMC2): 0
ratio to parent (GRWD1): 0.26
ratio to parent (ICAL): 0.57
ratio to parent (N4BP1): 0.41
ratio to parent (NHLC2): 0.24
ratio to parent (NSF): 0.57
ratio to parent (NSMA3): 0.28
ratio to parent (PAPOA): 0.96
ratio to parent (RFA2): 0.43
ratio to parent (RFA3): 0.47
ratio to parent (S23IP): 0.19
ratio to parent (SAHH2): 0.2
ratio to parent (SEPT9): 0.12
ratio to parent (SH3G1): 0.2
ratio to parent (SNP29): 0.09
ratio to parent (SYAP1): 0.5
ratio to parent (TBD2B): 0.5
ratio to parent (TBPL1): 0.49
ratio to parent (TES): 0.72
ratio to parent (TXND9): 0.53
ratio to parent (VRK2): 0
ratio to parent (WDR44): 0.75
ratio to parent (XIAP): 0.57
ratio to parent (ZYX): 0.8
ratio to parent (syntaxin 5 (STX5)): 0.27
